From the nanobody polyreactivity screen of Harvey et al. (2022)

Test: yeast display, Sf9 membrane polyspecificity reagent, FACS + sequencing; frameworks hold sequencing errors
Procedure, shortened: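 In a synthetic yeast display library (Saccharomyces cerevisiae BJ5465), nanobody expression was induced with galactose for 36–48 hours. FACS gates were set low and high (top ~1%) using anti-HA fluorescence for expression and streptavidin fluorescence for binding of the Sf9 membrane reagent. Each polyreactivity label is drawn from the gate of origin.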

Sequence | polyreactivity (PSR sort gate)
QVQLVESGGGLVQAGGSLRLSCPASGSIFYYYAMGWYRQAPGKERELVAAIRGSGSSTYYADSVKGRFTISRDNAKNTVYLQMNSLKPEDTAVYYCAAYDLLVGLQYDYWGQGTQVTVSS | low polyreactivity
QVQLVESGGGLVQAGGSLRLSCPASGSNFGVYAMAWYRQAPGKERELVAAITSSGGSTYYADSVKGRFTISRDNAKNTVYFQMNSLKPEDTAVYYCSKDSFSHSHYTRYGYWGQGSQVTVSS | low polyreactivity
QVQLVESGGGLVQAGGSLRLSCPASGSTFMKYDKGWYRQAPGIVRELVAAISWDGGSTYYADSVKGRFTISRDNAKNTVYLQMNSLKPEDTAVYYCNADYDVYLTIWYYYCEFDYWGQGSQVTVSS | low polyreactivity
QVQLVESGGGLVQAGGSLRLSCPASGSTFSPNAIGWSRQAPGKERELLDAINYSSGSTYYADSVKGRFTISRDNAKNSVYLQMNSLKPEDTAVYYCAVRSYWSSLWTLGDYWGQGTQVTVSS | low polyreactivity
QVQLVESGGGLVQAGGSLRLSCPASGSTFSWYAMGWSRQEPGKERELVAAISYSGGTYYADSVKGRFTISRDNAKNTVYLQKNSLKPEDTAVYYCAAQRTRYGYDYWGQGTQVTVSS | high polyreactivity
QVQLVESGGGLVQAGGSLRLSCPASGSTIFGTAMGWYRQAPGKDWELVAASSYSGDSTYYADSVKGRFTISRDNAKHTVYVEMISLKPEDTAVYYCAAGFVIKYDYWGQGTQVTVSS | low polyreactivity
QVQLVESGGGLVQAGGSLRLSCPASGSTISGNTMGWYRHDPGKERELVAAISFRSGRTYYADSVKGRFTISRDNAKNTGYLQMNSLIPEDTAVYYCNAEIYTYRTGRGYSRMDYWGQGSQVTVSS | high polyreactivity
QVQLVESGGGLVQAGGSLRLSCPASGYIFYYNAMGWYRQAPGKERELVAAITSDDSTYYADSVKGRFTISRDNANNTVYLQMNSLKQEDTAVYYCNSVRYGHWYDYWGQGTQVTVSS | low polyreactivity
QVQLVESGGGLVQAGGSLRLSCPDSGLIFVANAMGWYIQAPGKERELVAAISRSGGITYYADSVKGRFTISRDNATNTVYLKMNSLKPADTEVYYCAKTLPSNGHYDYWGQGTQVTVSS | low polyreactivity
QVQLVESGGGLVQAGGSLRLSCPTSGRNLRWYAMVWYIQAPGKERELVAAIKRSGDTTYYADSVKGRFTISRDNAKNTVYLQMNSLKPEHTAVYYCAARYTRKYDYWGQGTQVTVSS | high polyreactivity
QVQLVESGGGLVQAGGSLRLSCSASGFIFTLYAMGWYRQAHGKERELVASIRGSGVNTYYADSVKGRFTISRDNAKNTDYLQMNSLKPEDTAVYYCAARTYRRPYYSWGQGTQVTVSS | high polyreactivity
QVQLVESGGGLVQAGGSLRLSCSASGFIFYGYTMGWYRQAPGKERELVAAITFSGGRTYYADSVKGRFTISRDHAKNTVYLQMNSLKPEDSAVYYCAALHYGRYRMDYWGQGTQVTVSS | high polyreactivity
QVQLVESGGGLVQAGGSLRLSCSASGFILSYYARGWYRQSPGKERELVAAISRAGSTNYADSVKGRFTISRDNAKNTVYLQMNSLKPEDTAVYYCNKRQYSARVSRSYDYWGQGTQVTVSS | high polyreactivity
QVQLVESGGGLVQAGGSLRLSCSASGFTFDYYAMGWYRQAPGKERELVAAITWNTVSTYYADSVKGRFTISRDNAKNTVYLQMNSLKPEDTAVYYCAADTQWLYRYDYWGQGTQVTVSS | low polyreactivity
QVQLVESGGGLVQAGGSLRLSCSASGFTFYRYAMGWYRQAPGKERELVAAITSGGSTYYADSVKGRFTISRDNAKNTVYLQMNSLKPEDTAVYYCAAQKARVFRGAWTRYEYWGQGTQVTVSS | high polyreactivity
QVQLVESGGGLVQAGGSLRLSCSASGFTLGFNAMGCYRQAPGKEREFVASITYRGGSTYYADSVKGRFTISRDNAKNTVYLQMNSLKPEDTAVYYCAARHRSSYSLYWGQGTQVTVSS | high polyreactivity
QVQLVESGGGLVQAGGSLRLSCSASGIIFRSYAMGWYRQAPGKERELVAAITGGGTTNYADSVKGRFTISRDNAKNTVYLQMNRLKPEDTAVYYCNAGLDWFWFNEMDYWGQGTQVTVSS | low polyreactivity
QVQLVESGGGLVQAGGSLRLSCSASGIILPVYAMGWYRQAPGKEMELVAAISRDGGSTYYSDSVKGLFTISRDNAKNNVYLLMNSLKPEDTAVYYCNAVWRGIYFNGKFDYWGQGTQVTVSS | high polyreactivity
QVQLVESGGGLVQAGGSLRLSCSASGIIMDPNAMGWYRQAPGKERELVAGITRSGVSTYYSDSVKGRFTISRDNAKNTVYLLMNSLKPEDTAVYYCAKDRIYGSKGEDEDYWGQGSQVTVSS | low polyreactivity
QVQLVESGGGLVQAGGSLRLSCSASGITFGANTMGWYRQAPGKERELVAAITISGGITHYADSVKGRFTISRDHAKNTVYLQMNSLKPEDTAVYYCAAGAYWRLYPYRQRNGGRMYYWGQGTQVTVSS | low polyreactivity
QVQLVESGGGLVQAGGSLRLSCSASGITFWLYDKGWYIQAPGKERELVARITYSGTSTYYADSVKGRFTISRDNAKNTVYLQMNSLEPEDTAVYYCAADLTYHYPRYITYEYWGQGTQVTVSS | low polyreactivity
QVQLVESGGGLVQAGGSLRLSCSASGLTFSYYAMGLYRQAPGTERELVAAITSSGGNTYYADSVKGRFTISRDNAKNTVYLQMNSLKPEDTAVYYCNAVVGLGYNYWGQGNQVTVSS | high polyreactivity

Sequence | polyreactivity (PSR sort gate)
QVQLVESGGGLVQAGGSLRLSCSASGLTFYGYVMGWYRQAPGKERELVASISRSGRRTYYADSVKGRFTISRDNAKNTVYLQMNSLKPEDTAVYYCAAADHVGQEDDYWGLGTQVTVSS | low polyreactivity
QVQLVESGGGLVQAGGSLRLSCSASGRIFAAYAMGWYRQAPGKERELVATITRGGSTYYADSVKGRFTISRDNAKNTVYLQMNSLKPKDTAVYYCAVKRGFTQYKPFNYWGQGTQVTVSS | high polyreactivity
QVQLVESGGGLVQAGGSLRLSCSASGRIFPFNDMGWYRQAPGKEREFVADISDNGGSTYADSVKGRFTISRDNAKNTVYLQMNSLKPEDTAVYYCAADLLDISSYDGMDYWGQGTQVTVSS | low polyreactivity
QVQLVESGGGLVQAGGSLRLSCSASGRIFSRYAMGWYRQAPGKERELVATISSGGGTYYADSVKGRFTISRDNAKNTVYLQMNSLKPEDTAVYYCATRYPRKLRVPYDYWGQGTQVTVSS | high polyreactivity
QVQLVESGGGLVQAGGSLRLSCSASGRTFEHNCMGWSRQAHGKERELVASITSVGSTDYADSVKGRFTISRDNAKNTVYLQMNSLKPEDTAVYYCAKTLGSQNYDFDYWGQGTQVTVSS | low polyreactivity
QVQLVESGGGLVQAGGSLRLSCSASGRTFLGYAMGWYRQAPGKERELVAAITIGGGTYADSVKGRFTISRDNAKNTVYLQMNSLKPEDTAVYYCAKPGWYDGDYWGQGTQVTVSS | low polyreactivity
QVQLVESGGGLVQAGGSLRLSCSASGRTFTVNAMGWYRQAPGKERELVATITYGGGSTYYADSVKGRFTISRDNAKNTVYVQMNSLKREDTAVYYCYADYWAVNYDYWGQGTQVTVSS | low polyreactivity
QVQLVESGGGLVQAGGSLRLSCSASGRTFWRYAMGWYRQAPGKERELVAAISSGGRTNYADSVKGRFTISRDNAKNTVYLQMNSLIPEDTAVYYCAADSYYGYGYWGQGTQVTVSS | high polyreactivity
QVQLVESGGGLVQAGGSLRLSCSASGSIFDVFAMGWYRQAPGKERELVAGISRSGGSTYYADSVKGRFTISRDNAKNTVYLQMNSLKPEDTAVYYCAARYTYYRGRYDYWGQGTQVTVSS | low polyreactivity
QVQLVESGGGLVQAGGSLRLSCSASGSIFGFYAMGWYRQAPGKERELVAAIDSGDSTNYADSVKGRFTISRDHAKNTVYLQMNSQKPEDSAVYYCNAEAWWYFWFDYWGQGTQVTVSS | low polyreactivity
QVQLVESGGGLVQAGGSLRLSCSASGSIFLIYAMGWYRQAPGKERELVATINRGDNTYYADSVKGRFTISRDNAKNSVYLQMNSLKPEDTAVYYCAARAYDLGYAGYDYWGQGTQVTVSS | low polyreactivity
QVQLVESGGGLVQAGGSLRLSCSASGSIFRSNAIGWYRQAPGKERELGAAISWSNDSTYYADSVKGRFTISRDNAKNTVYLQMNSLKPEDSAVYYCAAVGSGRYSGYDFLGQGTQVTVSS | high polyreactivity
QVQLVESGGGLVQAGGSLRLSCSASGSTFYYYAMGRYIQAPGKDRELVAAISSSGGTTYYADSVKGRFTISRDNAKNTVYLQMNSLKPEDTAVYYCAAQRYPSSLYQRFYYWGQGTQVTVSS | high polyreactivity
QVQLVESGGGLVQAGGSLRLSCSASGYTIDLYAKGWYRQAPGKERELVAAISIRGGSTYYADSVKGRFTISRDNAKNTVYLQMNSLKPEDTAVYYCATVTYRRSYIAYRGTGDYDYWGQGTQVTVSS | low polyreactivity
QVQLVESGGGLVQAGGSLRLSCSAYGRTFNSYAMGWYRQAPGKERELVATISSGGSTKYADSVKGRFTISRDNAKNTVYLQMNSLKPEDTAVYYCNKVFPNLYIYVVRGLIEMDYWGQGTQVTVSS | low polyreactivity
QVQLVESGGGLVQAGGSLRLSCSSSGSIFVKNAMGWYRQAPGKERELVATISTGGRTYYADSVKGRFTISRDNAKNTVYLQMNSLIPEDTAVYYCATDFYPRYLLRTYRPYYYCGQGTQVTVSS | low polyreactivity
QVQLVESGGGLVQAGGSLRLSCSSSGYTFYGYAMGWCRQAPGKERELVADISWSGTNTNYADSVKGRFTISRDNAKNTVYLQMNSLKQDDTAVYYGAAGYYYRGFYTEDYWGQGTQVTVSS | high polyreactivity
QVQLVESGGGLVQAGGSLRLSCTASGITSGSYAMGWYRQEPGKESELVAAISNSGSTYYADSVKGRFTISRDNAKNTVYLQMNSLKPEDTEVYYCAAVTVGGHRSHRSGRSDYWGQGTQVTVSS | low polyreactivity
QVQLVESGGGLVQAGGSLRLSCTASGSIFSHNSMGWYRQAPGKERELVAAINQNGGITYYADSVKGRFTISRDNAKNTVYLQMNSLKPEDTAVYYCAARRYYRRPHKYDYWGQGTQVTVSS | high polyreactivity
QVQLVESGGGLVQAGGSLRLSCTASGSTFVAYAMGWYRQAPGKERELVAAITSSGGRTYYADSVKGRFTISRDNAKNTVYLQMNSLKPEDTAVYYCNVYPSRRRAVGESERYYWGQGTQVTVSS | high polyreactivity
QVQLVESGGGLVQAGGSLRLSCVASGSISQTYDMGWYRQAPGKERELVAAISSSGASTYYADSVKGRFTISRDNAKNTVYLQMNSLKPEDTAVYYCNADKFRRYGYWGQGTQVTVSS | high polyreactivity
